Experimental data from paper PMC2614558.

Assays:
[1] = molecular target: cytoplasmic (C-terminal, soluble) domain of the putative zinc transporter CzrB from Thermus thermophilus, His-tag-free (Thermus thermophilus); assay: SEC
[2] = molecular target: cytoplasmic (C-terminal, soluble) domain of the putative zinc transporter CzrB from Thermus thermophilus, His-tag-free (Thermus thermophilus); assay: small-angle X-ray scattering
[3] = molecular target: cytoplasmic (C-terminal, soluble) domain of the putative zinc transporter CzrB from Thermus thermophilus, His-tag-free (Thermus thermophilus); assay: small-angle X-ray scattering; remark: listed apart in the source

stoichiometry N [1]: 2
stoichiometry N [2]: 2
stoichiometry N [3]: 2
Substance: cytoplasmic (C-terminal, soluble) domain of the putative zinc transporter CzrB from Thermus thermophilus, His-tag-free (domain or fragment)
